The text below walks through data of patent US20110135645A1.

Test [1] concerns the target F protein of HMPV genogroup B2 strain (virus in plaque reduction assay) (human metapneumovirus) (UniProt Q6WB98). In words: cell-based or functional assay.
Test [2] addresses F protein of HMPV genogroup A2 strain (virus in plaque reduction assay) (human metapneumovirus) (UniProt Q6WB98). Kind of test: cell-based or functional assay.
In test [3] the target is F protein of HMPV genogroup B1 strain (virus in plaque reduction assay) (human metapneumovirus) (UniProt Q6WB98). In words: cell-based or functional assay.
For test [4], the target named is F protein of HMPV genogroup A1 strain (virus in plaque reduction assay) (human metapneumovirus) (UniProt Q6WB98). Kind of test: cell-based or functional assay.
The target of test [5] is HMPV F ectodomain lacking the transmembrane domain (FΔTM), 6xHis-tagged, strain TN/92-4 (genogroup A2) (human metapneumovirus). Kind of test: SPR (BIAcore 2000), HMPV FΔTM immobilized, 1:1 Langmuir fit. (In SPR one partner is held on a chip, and binding of the other changes the refractive index at the surface.)

In turn, Fab DSλ7 yielded a Neut. Dilution (60% plaque reduction), B2 (dilution (1:x)) in test [1] of less than 20. In test [2], this substance showed a Neut. Conc. (60% plaque reduction) of 1.1 µg/mL; a Neut. Conc. (60% plaque reduction), A2 of 1.1 µg/mL; a Neut. Dilution (60% plaque reduction) (dilution (1:x)) of 1110; a Neut. Dilution (60% plaque reduction), A2 (dilution (1:x)) of 1040. In addition, in test [3], the Neut. Conc. (60% plaque reduction), B1 amounted to 2.4 µg/mL and the Neut. Dilution (60% plaque reduction), B1 (dilution (1:x)) came out at 488. Also, in test [4], the Neut. Conc. (60% plaque reduction), A1 worked out at 9.8 µg/mL and the Neut. Dilution (60% plaque reduction), A1 (dilution (1:x)) was 120. In test [5], the Kd was found to be 984 pM and the koff amounted to 3.48e-05 s⁻¹.

In general, Kd refers to the equilibrium constant for the complex coming apart. What is called koff is a measure of how fast the partners let go of each other. Low values mean a long-lived complex, high ones a short-lived complex.
